The values that follow come from article PMC9569855 (International Journal of Molecular Sciences, 2022).

The experiment addresses SARS-CoV-2 wild type RBD (319-541aa) (SARS-CoV-2, UniProt P0DTC2). In words: SPR. To be noted: both partners purified.

B1: Bamlanivimab (antibody, V domains shown)
VH: QVQLVQSGAEVKKPGSSVKVSCKASGGTFSNYAISWVRQAPGQGLEWMGRIIPILGIANYAQKFQGRVTITADKSTSTAYMELSSLRSEDTAVYYCARGYYEARHYYYYYAMDVWGQGTAVTVSS
VL: not shown
The molecule B1 displayed a Kd of 1.4 nM.
